In article doi:10.1101/2025.05.02.651933 (bioRxiv, 2025):

Target: HIV gp120 monomer of strain CN97001 (HIV-1, strain CN97001 (paper: clade C); …, UniProt G4XFJ5, strain)
Test: BLI

B1: recombinant bnAb 10-1074 (from pTT3 10-1074 NHP-IgG) (antibody, V domains shown)
VH: QVQLQESGPGLVKPSETLSVTCSVSGDSMNNYYWTWIRQSPGKGLEWIGYISDRESATYNPSLNSRVVISRDTSKNQLSLKLNSVTPADTAVYYCATARRGQRIYGVVSFGEFFYYYSMDVWGKGTTVTVSS
VL: LSVALGETARISCGRQALGSRAVQWYQHRPGQAPILLIYNNQDRPSGIPERFSGTPDINFGTRATLTISGVEAGDEADYYCHMWDSRSGFSWSFGGATRLTVL
Question: Does B1 bind?
Answer: binds
